Columns and labels:
Experiment in all cases: cell_activity
[1] = system: eZFN2 zinc finger nuclease (FokI); conditions: maize; two identical sites flanking aad-1 cassette; 23 of 621 plants
[2] = system: eZFN4 zinc finger nuclease (FokI); conditions: soybean F1, AtUbi3 promoter; chimeric 4.43%; with CsVMV promoter 0.00% complete, 1.58% chimeric
[3] = system: eZFN4-HF zinc finger nuclease (high fidelity FokI); conditions: soybean F1, AtUbi10 promoter; chimeric excision 10.68%
[4] = system: eZFN14 zinc finger nuclease (FokI); conditions: soybean F1, CsVMV promoter; complete excision 0.00%

## AAGACTCCCGCCCATCTCTCTATGCCCGGGACAAGTG (double strand) [eZFN2 binding site]
[1]
  activity (% F1 plants with aad-1 excised): 3.7

## GCCTTTTGCAGTTTATCTCTATGCCCGGGACAAGTG (double strand) [eZFN4 binding site]
[2]
  activity (% complete excision): 0.13
[3]
  activity (% complete excision): 1.23

## TGGTCATCCTCATCCTGTCTATGCCCGGGACAAGTG (double strand) [eZFN14 binding site]
[4]
  activity (% chimeric excision): 2.82
